Laboratory results published in a protein production outcome set (Wang et al. 2014).

Test: label from the status in PepcDB records
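Also: failed if final PepcDB status was selected cloned or expressed and not failed if soluble or beyond.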

For “MMIDPELRPAFLPAGKLRAAINLGNPILAGTDAAGQAVGVSVDLAREFARRLNAGIELRVFDTAGQSVDAVTREEADIGFFAIDPARGAGIAFTGPYVLIEGAYLVRDDSPLQANEDVDRAGKRVTVGKGSAYDLHLTRALQHLEHHHHHH”, the protein production was “not failed”.
For “MMIIIRVAIMISVVFYLYFIINLLLINHYREPIQSYEKGPTPYELFLVIPVLNEEHVISRTITQLTESLEQLPPTVHAQIIAVDDDSTDHSLLLLTQSSSRFLQILHRTGNQRAGKGAVLNTAVQYIHKTLALKSDPQRTIVGVLDADAFMNTADLTRVLAHFEQEPQLAMIQTSVNIYNQPNWLTKMQNFEFMGVNNATQQLRNRLGQGIASGNGQFVRLDLALQNPWGNSLLEDLEFTLRTWLLGGTRTAFDHTLVVQQEAVEQLRPFFRQRVRWCQGAVQCMRYLPALWRSGRLNHFQKLDTTFWILMPISGCIVPLTSLITLVVLVSRSLQHWQVGWHHLAIGTLLVIAFSACLVLAALYQRNCAVVKQPVGFLDALKQSLTFQAFLLIISLTPYVAIYRQLRGQTGWAKTHHGVTTRVAKYPDTGLKRSY”, the protein production was “failed”.
In the case of “MMIMLSKRPVAMRIALRPLALAASLILSTPFALNATTFGTDLLEGQVLDGIGTGAGNLGTVADIQNTLSNMLRDEAAIGTLASVLPQALQRLPDDRQLRLLQAVVWAATRRDDDARAQMAQIGQEPPNVWRHVAEGLIARNAGDLARAAASLDEARALDPDNAYVHNTAGSIAFAAGDLEAAQEHFAQAVKSAPGWPRLLRQPCRHDDRTRQSARGPDHSGRKPPSPSRLLRHPPDGGRGASVARAVGCCRSRAAHLP”, the protein production is reported as “failed”.
With “MMITRGGAKAAKSLLVAAGPRLFSTVRTVSSHEALSASHILKPGVTSAWIWTRAPTIGGMRFASTITLGEKTPMKEEDANQKKTENESTGGDAAGGNNKGDKGIASYWGVEPNKITKEDGSEWKWNCFRPWETYKADITIDLKKHHVPTTFLDRIAYWTVKSLRWPTDLFFQRRYGCRAMMLETVAAVPGMVGGMLLHCKSLRRFEQSGGWIKALLEEAENERMHLMTFMEVAKPKWYERALVITVQGVFFNAYFLGYLISPKFAHRMVGYLEEEAIHSYTEFLKELDKGNIENVPAPAIAIDYWRLPADATLRDVVMVVRADEAHHRDVNHFASDIHYQGRELKEAPAPIGYH” the protein production was “failed”.
With “MMKEKLESKKDEIRCCYKITDTDVAVLLKMVEIEKPITSEELADIFKLSKTTVENSLKKLIELGLVVRTKTEGKKIGRPKYYYSISSNILEKIRNDLLNCAKRMELAAT” the protein production was “not failed”.
With “MMKEMTVQQMTEKVLNKESLFILDVRNESDFRDWKIEGENFAYLNVPYFELVHGVDSIVDRLPKDQDIVVVCAKGGSAAFVAEQLAEAGFDNVYTLAGGMQAWSEHLHQAKVYEDDQLKIYQFIRVGKGCLSYMVLSGDEALVVDPLRFIDVYEQVAQQEGVTITHIVDSHLHADHLSGGKALAERTGAAYYLMKSEGAVFDFEPLEQHETIDFENVHLEVLAVKTPGHTPGSVSFFVNGKWLFSGDTIFVGGLGRPDLGGKVAEWAEDLYHTVYEKVAAMADDVIVLPAHYANLDEEINAEGYVGDTLGRIRARNEMMQNKAKDEFIDLVIQGAKTETPPNFEDIVAINRGLKTVDIETQRELEIGPNRCALHHTHA” the protein production was “failed”.
With “MMKIFIRILLLFYYVFILLACGDKKESISINYILMARVTNMQTDEIKIDTPSRTIFIKLITGGDLSNVHVNLTLAKGVEMVEPANTESVYDFTKPASVTLKYKEEIITYHFIIDTEYNIVDPATLGWVKSTEWGTLPDYLAIYKSPSTLKGKNAVAYIAVADMDKNASFSVLGNATGVKTLTQFYNAESVKPAIVMNGGYFASNGATVSLLYRNNVMLAPNLQSMSRSDGTSNVAFYPTRSAFGEIENGKFEVNWVYTVSSGQTYAYPAPSPNKSGVSPMQIPSVNYPEGASIWKAKNAIGGGPVLLKNGLYKNTWEAELFDTASGIGPTSNNPRSAIGITGDNRLIFFVCEGRNKTPNVPGFTLEEVAYILRDLGCLDAMNLDGGGSSCMLVNGQETIKPSDGAQRSVTTAVAIK” the protein production was “failed”.
For “MMKKSATTSSACNGCPAHSGNKLRRMGTDAERYDFTIALAGNPNTGKSTVFNALTGLKQHTGNWPGKTVEKAEGAFSYAGSSYKIVDLPGTYSLLSTSEDEEIARDFILFGKPDVTLIVADATRLERNMNLILQILEITDRAVLCANLMDEAERNGVEIDLRGLSRRLGIPVVGASARSGEGISDLLSALSEVAQGIYRCTPHRLTSIGTEIDTRIDSLAESIRLFHPDTPNSRWLALRLTEGDRRVENILYADNEAPAEKLKKEVDEFRRNFGEDLHDQLSEALYSDAGKICQEVITQANKRGRTPLDIKIDRIVTSRKWGFPIMLLMLALVLWITIVGSNYPSQWLSDSLVGILHPLLKTRATGFLPDWLSGFLIDGVYLATAWVVSVMLPPMAIFFPLFTLLEDFGFLPRVAFNLDELFRRSGAHGKQALTMTMGFGCNAAAIINTRIIDSQRERLIAILTNNFSLCNGRWPTQILLATIFLTPAVPAYLRGVIGIGSVVAIALLGIAFMFFFSWVLSRTLLRGQVSTFNLELPPYRPPQFWQTIYKSIVDRTLVVLWRAVVFAAPAGALIWLTCNIQIGGVGIAEYLIDLLDGPGWLMGLNGVILLAYVLAIPANEIVIPTILMLTVLTTGIDGGTGAGVMFEADGTAETARLFEAGGWTMLTGINLMLFCLLHNPCSTTLFNIYKETGSRKWTLLAALIPLATGFVVTVAVAFVWRLVGG”, the protein production was “failed”.
For “MMLGPEGGEGYVVKLRGLPWSCSIEDVQNFLSDCTIHDGVAGVHFIYTREGRQSGEAFVELESEDDVKLALKKDRESMGHRYIEVFKSHRTEMDWVLKHSGPNSA”, the protein production was “not failed”.
In the case of “MMNASSISSRFKDLFVTPSIVFDFDGTLAIGHGPVLAYALCVAPEGSKDFLERVRRELRRYDDGQSIYRDGYDIVAKLASELGIDDGTMSVAYGESRKLLGSDLAPVEHVRGIKDILSSLKGHARLVLATNAPENGVHDLLRQWGVADLFDQLHFVVGKPAGLISIISDLQLDGPVLAVGDIYEFDLSPAAQLGADTALVGATATISEAKVSMRGDSIADLPLLAWVSSRVSSS”, the protein production is reported as “failed”.
In the case of “MMNKPAPRELEVIRSTYITPHMLRITLGGAGLAGFPADQESAYIKLLFPQAGERPLMRTYTIRQQRDDEIDVDFVLHDTDGPASSWAKTAQVGELIQIGGPGLKKLINFEADWFLLAGDMTALPAISVNLAKLPNNAVGYAVIEVLSEADIQPLVHPEHVELHWVINPEADPEGRPLVERIAQLPWLAGEPAVWIACEFNSMRALRRHFKQAHALPKSHFYTSSYWKIGCNEGEHKLVKQEDEQLENGASV”, the protein production is reported as “not failed”.
In the case of “MMNTKVALKQLMATHFITVDVPCPECGGAMTAWKEPTPDTPPRCPPVCMECGYRSVKKKEATTAKNLYESSLIKKAKDYFLNGSVLTDRKSLHKKISNYYPSNQESTKAKNISMEFCEKTLLGEIHHLILTGGVGVGKSHLAIGCLNEILVKSNYSKKVLFVSYRELLEQLKFAMNDEEARKAITGVAMSEIKAADVVVLDDIGAELGDFNKRDEKGNLILSRASNFDIDTLTGILESRIDKPTIITSNLKSKEIKYCYGERIVSRMATHSNGFMHRFTNTKDYRLKTALEHHHHHH”, the protein production is reported as “not failed”.
For “MMPPPAVPPQLPEVPAADLPRVRAPLSTYRRPQRTDFVTPTGGPFFAKQDKALNTIDLKMAHDLKLRGYRVKVAVVDEGVRSDHPLLNVEKKYGGDYMADGTRTYPDPKRQGRHGTSVALVLAGQDTDTYRGGVAPNADLYSANIGTRAGHVSDEAAFHAWNDLLGHGIKIFNNSFATEGPEGEQRVKEDRNEYHSAANKQNTYIGRLDRLVRDGALLIFAAGNGRPSGRAYSEVGSVGRTPRVEPHLQRGLIVVTAVDENGRLETWANRCGQAQQWCLAAPSTAYLPGLDKDNPDSIHVEQGTSLSAPLVTGAAVLVQDRFRWMDNDNLRTTLLTTAQDKGPYGVDPQYGWGVLDVGRAVQGPAQFAFGDFVARVTDTSTFGNDISGAGGLVVDGPGALVLAGSNTYAGRTTIKRGTLDVFGSVTSAVTVEPGGTLTGIGTVGTVTNQGTVVNKEAGLHVKGDYSQTAQGLLVTDIGSLLDVSGRASLAGRLHVDDIRPGYVGGDGKSVPVIKAGAVSGVFATLTRSPGLLLNARLDYRPQAVYLTMRRAERVHAAAQRGADDGRRASVLAVAERLDAAMRELDALPESQRDAAAPAAAIGRIQRVQSRKVLQDNLYSLAGATYANAAAVNTLEQNRWMDRLENHLAQAGGERVAAIAEYRHGQLRWRPDGLQGRQRGNGIMLGLAREVSAGLSLAAALTHSRTHWDESSGAPARDNAAMTTPGVLLGARRAWEDGWFVQGALGYSRYRNQATRHISLGDAGHTVGATARGHVWQADAGLGRQWTLAPGHTLAPRAGLQLTHLRQQGFSESGAQGLGLRAHALTRTVPTLWAQLQSRHAFMLGATPMTAQLQLGVWHDLRARRYAASGGFAGLAQDQGASGYWPVPRTRVQGALGLRAEFAPGLVLGLGYTGQLATHWVDHQLSASLTYRY”, the protein production was “failed”.
For “MMPPQRSAGTDPEAEHPQYAGQYLLEAALGSGGMGVVHLARSASGLRLAVKVVHAQYAQDPEFRGRFRQEVAAARRVSGAFTAPVVDADPGAGRPWMATLFIPGPTLAEHVKRNGALPPARLRHLMAGLAEALRDIHRAGVVHRDLKPSNVLLAEDGPKVIDFGISRPSDSELRTETGKLIGTPPFMAPEQFRRPREVGPAADVFALGSVIVHAATGSGPFDSDSPYLVAYQVVHDEPDLTGVPEELAELVAGCLAKEPDDRPTPDELMTALRSVSASYDTQAFIPVQRDGSSGSAWRPGPGPGTGPGTGPGPGPGHGGERVVTHQVRQPEPVAAPAARKRLGRRLWIPAVAVAVLACVAGALVLLGPGTGAPREQDAAPSKAAFQPWDIGLSAGGSKATGMAQCAYAPHRLYCTRPGVLAAAVDPADGKVLWSRGDAKRHSDGTVRPPVLSGGLLHVVSEGGKRLAALDPATGKTRWSHDLAAYGGRFAQVGGVVLLTGADARVTALDAATGEEKWRRRIPGQPQPAFVSYGDGLAYAVAAAGSGTKVAAVDPESGATRWQRRFDGVLSLVGAHDGAVWFASTTADSDTDAVVRYDVTRRTVRRVGLRFPLQGAQAVVRKDTVYVLANGGALVAVDTRTSKELWRLETSVSFASAPVAAGDRVYFAGADGRLLAVDASKGVLLGQTKARLGGAHGSLVSGLPSPVAADGKVYSAAPDGSLFAVDARRPGGW”, the protein production was “failed”.
In the case of “MMRCLTITIMFFMFFFLSVIQKCKSETSKSGDYIIYMGAASSDGSTDNDHVELLSSLLQRSGKTPMHRYKHGFSGFAAHLSEDEAHLIAKQPGVLSVFPDQMLQLHTTRSWDFLVQESYQRDTYFTEMNYEQESEMHEGDTIIGFLDSGIWPEAQSFNDRHMGPVPEKWKGTCMRGKKTQPDSFRCNRKLIGARYYNSSFFLDPDYETPRDFLGHGTHVASIAAGQIIANASYYGLASGIMRGGSPSSRIAMYRACSLLGCRGSSILAAFDDAIADGVDVISISMGLWPDNLLEDPLSIGSFHAVERGITVVCSVGNSGPSSQSVFNAAPWMITVAASTIDRGFESNILLGGDENRLIEGFGINIANIDKTQAYPLIHARSAKKIDANEEAARNCAPDTLDQTIVKGKIVVCDSDLDNQVIQWKSDEVKRLGGIGMVLVDDESMDLSFIDPSFLVTIIKPEDGIQIMSYINSTREPIATIMPTRSRTGHMLAPSIPSFSSRGPYLLTRSILKPDIAAPGVNILASWLVGDRNAAPEGKPPPLFNIESGTSMSCPHVSGIAARLKSRYPSWSPAAIRSAIMTTAVQMTNTGSHITTETGEKATPYDFGAGQVTIFGPSSPGLIYETNHMDYLNFLGYYGFTSDQIKKISNRIPQGFACPEQSNRGDISNINYPSISISNFNGKESRRVSRTVTNVASRLIGDEDTVYTVSIDAPEGLLVRVIPRRLHFRKIGDKLSYQVIFSSTTTILKDDAFGSITWSNGMYNVRSPFVVTSKDDNDSER”, the protein production is reported as “failed”.
With “MMRDSPSIQGTLDAATQHALLAGRHADPFSVLGPHQAGAHTVVRVLAPGARTVMAVLPGGQRTPLLPMQPGLFENTVPGLQPGAPAAYRLCIEWEGGIQHTADPYAFGPVLD” the protein production was “failed”.
